The source of these data is patent US20240245798A1 (TUBULIS, published 2024).

For assay [1], the target named is T1, human full-length 5T4-(GGGGS)-mCherry, transiently expressed on HEK293 cells (human, UniProt Q13641 32-420).
T1 construct: also called human full-length 5T4-mCherry; not shown: mCherry fluorescent protein
T1 sequence: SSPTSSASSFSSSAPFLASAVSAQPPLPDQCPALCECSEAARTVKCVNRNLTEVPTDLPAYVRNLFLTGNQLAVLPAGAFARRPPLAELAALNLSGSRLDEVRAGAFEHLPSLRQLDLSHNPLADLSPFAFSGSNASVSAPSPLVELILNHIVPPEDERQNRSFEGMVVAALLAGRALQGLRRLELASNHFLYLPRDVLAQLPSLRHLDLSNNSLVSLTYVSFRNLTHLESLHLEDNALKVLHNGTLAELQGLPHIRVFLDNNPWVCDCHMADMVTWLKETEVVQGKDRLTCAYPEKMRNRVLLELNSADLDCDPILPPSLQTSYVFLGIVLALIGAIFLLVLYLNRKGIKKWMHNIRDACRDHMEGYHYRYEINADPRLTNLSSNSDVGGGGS
Description: flow cytometry on mCherry-positive HEK293 cells transiently expressing human full-length 5T4-mCherry, one-site specific binding fit. In general terms: In flow cytometry, cells or beads pass a laser one at a time.

Assay [2] addresses T2, purified recombinant human 5T4 antigen, extracellular domain as 6x-Histidine fusion protein, de-glycosylated … (human, UniProt Q13641 32-355, de-glycosylated with PNGase F over night at 37 C).
T2 construct: Same construct as m5 after PNGase F treatment; also called de-glycosylated 5T4; not shown: 6x-Histidine tag
T2 sequence: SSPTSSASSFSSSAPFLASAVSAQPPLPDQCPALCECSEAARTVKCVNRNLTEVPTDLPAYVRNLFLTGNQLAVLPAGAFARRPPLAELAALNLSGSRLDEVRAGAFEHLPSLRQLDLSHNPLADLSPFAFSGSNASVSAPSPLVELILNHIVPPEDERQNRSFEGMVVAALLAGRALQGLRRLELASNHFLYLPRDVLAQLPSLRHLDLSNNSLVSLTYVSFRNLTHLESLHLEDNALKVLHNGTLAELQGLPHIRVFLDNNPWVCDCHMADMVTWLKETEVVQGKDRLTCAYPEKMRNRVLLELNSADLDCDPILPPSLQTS
Description: ELISA on immobilized PNGase F-treated recombinant human 5T4 ECD-6xHis; apparent KD, one-site specific binding fit.

Assay [3] deals with T3, recombinant hexameric human C1q complement protein (human, UniProt P02745 23-245; P02746 28-253; P02747 29-245, limits assumed).
T3 construct: Described only as recombinant hexameric C1q; also called complement factor C1q
Description: HTRF human C1q binding assay (Cisbio). (In general: TR-FRET usually uses a lanthanide donor and a delayed reading to cut background.)

The target in assay [4] is T4, purified recombinant human 5T4 antigen, extracellular domain as 6x-Histidine fusion protein (glycosylated) (human, UniProt Q13641 32-355).
T4 construct: Expressed in Expi-HEK293; also called glycosylated 5T4; recombinant immobilized human 5T4 antigen; not shown: 6x-Histidine tag
T4 sequence: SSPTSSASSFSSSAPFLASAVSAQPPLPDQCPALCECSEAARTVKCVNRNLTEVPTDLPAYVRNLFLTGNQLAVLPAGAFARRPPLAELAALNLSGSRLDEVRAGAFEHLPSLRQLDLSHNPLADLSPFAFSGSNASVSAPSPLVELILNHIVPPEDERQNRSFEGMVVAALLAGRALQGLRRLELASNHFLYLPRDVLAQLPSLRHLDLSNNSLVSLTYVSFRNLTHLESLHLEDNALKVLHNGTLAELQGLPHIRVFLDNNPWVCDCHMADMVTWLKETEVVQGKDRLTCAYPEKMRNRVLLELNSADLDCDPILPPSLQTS
Description: ELISA on immobilized recombinant human 5T4 ECD-6xHis; apparent KD, one-site specific binding fit. For orientation: In an ELISA, binding on a coated surface is turned into a signal by an enzyme label.

Assay [5] concerns the target T5, white-tufted-ear marmoset full-length 5T4-(GGGGS)-mCherry, transiently expressed on HEK293 cells (white-tufted-ear marmoset (Callithrix …, UniProt Q13641 32-420 (human entry))).
T5 construct: also called marmoset full-length 5T4-mCherry; marmoset 5T4; not shown: mCherry fluorescent protein
T5 chain: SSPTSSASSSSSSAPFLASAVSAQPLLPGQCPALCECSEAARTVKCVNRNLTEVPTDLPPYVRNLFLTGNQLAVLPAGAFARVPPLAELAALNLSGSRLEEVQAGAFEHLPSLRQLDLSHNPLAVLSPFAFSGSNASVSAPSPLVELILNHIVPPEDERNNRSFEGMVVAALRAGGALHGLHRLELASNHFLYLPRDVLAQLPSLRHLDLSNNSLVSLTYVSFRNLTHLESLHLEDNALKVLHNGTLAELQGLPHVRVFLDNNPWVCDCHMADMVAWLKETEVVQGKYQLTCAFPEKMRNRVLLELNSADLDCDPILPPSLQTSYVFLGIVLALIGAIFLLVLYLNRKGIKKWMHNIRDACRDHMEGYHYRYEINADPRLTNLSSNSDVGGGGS
Nature of the assay: flow cytometry on mCherry-positive HEK293 cells transiently expressing marmoset full-length 5T4-mCherry, one-site specific binding fit.

In assay [6] the target is T6, human 5T4 (trophoblast glycoprotein, TPBG), endogenously expressed on tumor cells (human, UniProt Q13641 32-420).
T6 construct: the protein stood on cell lines that express it endogenously; also called endogenously expressed human 5T4; MDA-MB-468 cells
T6 sequence: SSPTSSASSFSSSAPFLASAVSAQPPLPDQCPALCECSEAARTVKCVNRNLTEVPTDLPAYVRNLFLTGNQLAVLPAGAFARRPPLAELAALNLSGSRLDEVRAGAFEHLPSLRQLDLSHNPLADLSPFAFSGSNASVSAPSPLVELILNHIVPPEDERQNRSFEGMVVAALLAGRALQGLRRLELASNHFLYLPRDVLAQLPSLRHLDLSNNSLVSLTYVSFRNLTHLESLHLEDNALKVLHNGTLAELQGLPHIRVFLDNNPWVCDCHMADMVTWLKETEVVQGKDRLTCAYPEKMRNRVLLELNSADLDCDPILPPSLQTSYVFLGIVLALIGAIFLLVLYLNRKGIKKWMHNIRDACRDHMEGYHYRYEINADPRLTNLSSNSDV
Nature of the assay: flow cytometry on MDA-MB-468 cells endogenously expressing human 5T4, 0.002 to 200 nM, one-site specific binding fit.

T3 sequence (P02745 23-245 limits assumed, chain 1 of 3): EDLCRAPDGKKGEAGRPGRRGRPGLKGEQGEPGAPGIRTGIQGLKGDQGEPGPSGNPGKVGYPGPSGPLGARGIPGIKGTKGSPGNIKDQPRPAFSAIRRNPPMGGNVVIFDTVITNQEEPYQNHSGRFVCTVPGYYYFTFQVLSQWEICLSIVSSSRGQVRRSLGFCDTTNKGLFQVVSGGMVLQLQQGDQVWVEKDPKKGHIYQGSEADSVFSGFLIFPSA
T3 sequence (P02746 28-253 limits assumed, chain 2 of 3): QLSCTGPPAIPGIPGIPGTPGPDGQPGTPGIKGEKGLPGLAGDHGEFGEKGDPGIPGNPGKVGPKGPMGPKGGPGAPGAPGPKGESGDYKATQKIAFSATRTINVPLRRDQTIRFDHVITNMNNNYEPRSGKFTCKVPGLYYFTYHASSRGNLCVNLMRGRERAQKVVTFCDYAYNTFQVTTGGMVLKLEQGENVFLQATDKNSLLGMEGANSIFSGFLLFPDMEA
T3 sequence (P02747 29-245 limits assumed, chain 3 of 3): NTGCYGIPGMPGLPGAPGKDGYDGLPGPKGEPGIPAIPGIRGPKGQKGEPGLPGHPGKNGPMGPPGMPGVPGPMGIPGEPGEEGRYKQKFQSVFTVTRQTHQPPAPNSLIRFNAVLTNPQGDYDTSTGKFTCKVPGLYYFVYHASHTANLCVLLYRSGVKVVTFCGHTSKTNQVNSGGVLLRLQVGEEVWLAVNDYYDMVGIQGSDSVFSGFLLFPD

B1: anti-TPBG antibody HC-LALA (LALA-silenced anti-TPBG antibody) (antibody)
heavy: not shown
light: EIVMTQSPDSLAVSLGERATINCKASQSVSNDVAWYQQKPGQPPKLLIYYTSSRYAGVPDRFSGSGSGTDFTLTISSLQAEDVAVYYCQQDYNSPPTFGGGTKLEIKRTVAAPSVFIFPPSDEQLKSGTASVVCLLNNFYPREAKVQWKVDNALQSGNSQESVTEQDSKDSTYSLSSTLTLSKADYEKHKVYACEVTHQGLSSPVTKSFNRGEC
notes: also called anti-TBPG antibody; anti-TPBG mAb HC-LALA
As for B1, the Kd was 2.15 nM in assay [1]; 0.16 nM in assay [2]; 0.1 nM in assay [4]; 5.46 nM in assay [5]; 0.247 nM in assay [6]. Moreover, the binding result in assay [3] was “no binding (tested: serial dilutions 280 nM-11.6 nM)”.
